Our source for the Kd and stoichiometry N values is publication PMC8855710.

Assay [1] deals with htt^ex1Q7 (huntingtin exon-1 polypeptide with seven glutamines). Description: NMR titration.
For assay [2], the target named is PL: binary complex of monomeric htt^ex1Q7 with Fyn SH3 (not stated | Gallus gallus) (UniProt Q05876). The assay is described as follows: NMR titration.
In assay [3] the target is huntingtin exon 1 (httex1Q7) dimer exon 1 (Homo sapiens) (UniProt P42858). The settings on record: cited from earlier work.

One may read the Kd as a measure of binding affinity in units of concentration. The substance “Gallus gallus tyrosine kinase Fyn SH3 domain (wild type) (from UniProt Q05876 85-135) (domain or fragment)” showed a Kd in assay [1] of 210 µM.

What is called stoichiometry N is the number of molecules, sites or subunits per partner or assembly. In the case of “PL: binary complex of monomeric htt^ex1Q7 with Fyn SH3 (from UniProt Q05876 85-135)”, the stoichiometry N in assay [2] was 2.

Turning to “huntingtin exon 1 (httex1Q7) dimer exon 1 (from UniProt P42858)”, the Kd in assay [3] was 25 µM.
